In paper doi:10.1101/212290 (bioRxiv, 2017) one finds Kd data, which are given here for 1 molecule.

The target of this assay is IscU-IscS complex (E. coli, UniProt P0A6B7;P0ACD4, biotin (site not stated)). Put plainly: BLI.
IscU-IscS complex, sequence (P0A6B7 whole entry, chain 1 of 2): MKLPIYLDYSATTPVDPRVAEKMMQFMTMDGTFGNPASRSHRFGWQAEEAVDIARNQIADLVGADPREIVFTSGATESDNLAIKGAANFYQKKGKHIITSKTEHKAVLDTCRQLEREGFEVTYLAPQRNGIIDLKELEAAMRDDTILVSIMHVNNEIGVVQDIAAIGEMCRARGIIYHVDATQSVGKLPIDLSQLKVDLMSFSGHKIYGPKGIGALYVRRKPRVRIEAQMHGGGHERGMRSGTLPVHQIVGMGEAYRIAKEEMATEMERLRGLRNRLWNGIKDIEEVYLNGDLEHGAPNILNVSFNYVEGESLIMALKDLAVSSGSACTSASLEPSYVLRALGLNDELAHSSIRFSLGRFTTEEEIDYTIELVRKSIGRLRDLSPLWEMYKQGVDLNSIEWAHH
IscU-IscS complex, sequence (P0ACD4 2-128, chain 2 of 2): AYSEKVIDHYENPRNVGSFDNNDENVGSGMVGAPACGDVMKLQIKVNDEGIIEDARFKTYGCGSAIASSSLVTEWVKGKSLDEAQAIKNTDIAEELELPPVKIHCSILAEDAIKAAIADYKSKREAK

B1: IscX (natural protein)
chain: MGLKWTDSREIGEALYDAYPDLDPKTVRFTDMHQWICDLEDFDDDPQASNEKILEAILLVWLDEAE
modifications: most likely a mixed disulfide with beta-mercaptoethanol (+76 Da) on the majority of the protein
B1 registered a dissociation constant (Kd) of 8 ± 2 µM.
